{"source": "patent US7045617", "proteins": {"B1": {"name": "insulin receptor protein tyrosine kinase (IRK), activated recombinant (protein)", "chain": "VFPCSVYVPDEWEVSREKITLLRELGQGSFGMVYEGNARDIIKGEAETRVAVKTVNESASLRERIEFLNEASVMKGFTCHHVVRLLGVVSKGQPTLVVMELMAHGDLKSYLRSLRPEAENNPGRPPPTLQEMIQMAAEIADGMAYLNAKKFVHRDLAARNCMVAHDFTVKIGDFGMTRDIYETDYYRKGGKGLLPVRWMAPESLKDGVFTTSSDMWSFGVVLWEITSLAEQPYQGLSNEQVLKFVMDGGYLDQPDNCPERVTDLMRMCWQFNPKMRPTFLEIVNLLKDDLHPSFPEVSFFHSEENK"}}, "biological_target": "T1, IRS727 peptide substrate", "T1 chain": "KKKLPATGDYMNMSPVGD"}
{"protein": "B1", "values": [{"measurement": "Km app of the peptide substrate", "value": "Km app (IRS727)=280 µM"}]}
